# Experimental data published in patent publication US20150315260A1 (Sanofi, published 2015).
# Starred links: 1 amine or outer side, 2 acyl side, 3 side chain; linkers in the order of their positions; H or OH if unused. Non-standard residues stand in square brackets, D forms with d. Groups on a side chain read outwards from the residue. No end group written: not given here. *: point of attachment. γGlu = O=C(O)[C@H](CCC(=O)[*:2])N[*:1]; Stearoyl = CCCCCCCCCCCCCCCCCC(=O)*; Palmitoyl = CCCCCCCCCCCCCCCC(=O)*; Aib = CC(C)(N)C(=O)O
# T1: human GIP receptor (human, UniProt P48546 22-466)
# T1 sequence (looked up): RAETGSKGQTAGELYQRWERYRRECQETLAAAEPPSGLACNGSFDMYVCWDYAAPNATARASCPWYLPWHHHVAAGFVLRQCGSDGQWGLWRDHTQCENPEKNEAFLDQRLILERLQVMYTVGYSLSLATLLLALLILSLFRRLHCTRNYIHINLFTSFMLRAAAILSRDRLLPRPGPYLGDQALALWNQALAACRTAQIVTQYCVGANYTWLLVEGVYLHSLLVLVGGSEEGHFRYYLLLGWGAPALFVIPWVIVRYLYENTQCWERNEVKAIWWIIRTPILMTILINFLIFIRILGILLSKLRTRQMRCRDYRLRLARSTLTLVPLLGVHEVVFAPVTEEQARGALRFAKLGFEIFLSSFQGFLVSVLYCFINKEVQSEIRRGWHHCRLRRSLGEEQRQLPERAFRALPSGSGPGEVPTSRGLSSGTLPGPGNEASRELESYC
# Key:
# Assay in all cases: cell-based or functional assay
# human GIP receptor = target: T1, human GIP receptor
# human GLP-1 receptor = human GLP-1 receptor (human, UniProt P43220 24-463)
# human glucagon receptor = human glucagon receptor (human, UniProt P47871 26-477)
# human glucagon receptor, sequence (P47871 26-477): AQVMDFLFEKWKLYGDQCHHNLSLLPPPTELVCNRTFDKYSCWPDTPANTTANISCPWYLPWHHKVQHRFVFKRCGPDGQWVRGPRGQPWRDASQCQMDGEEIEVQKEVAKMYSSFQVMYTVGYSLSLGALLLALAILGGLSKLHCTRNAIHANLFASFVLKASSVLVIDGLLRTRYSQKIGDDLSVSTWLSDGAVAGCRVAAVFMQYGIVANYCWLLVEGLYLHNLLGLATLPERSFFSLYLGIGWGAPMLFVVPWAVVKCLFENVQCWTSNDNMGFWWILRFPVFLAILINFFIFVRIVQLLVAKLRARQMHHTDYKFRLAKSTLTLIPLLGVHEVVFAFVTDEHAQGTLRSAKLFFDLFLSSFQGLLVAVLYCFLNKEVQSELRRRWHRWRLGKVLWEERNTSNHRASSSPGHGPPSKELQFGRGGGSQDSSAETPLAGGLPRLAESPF
binder,measurement,setting,value
H[Aib]QGTFTSDLSKQK([γGlu-γGlu-Palmitoyl])DEQRAKLFIEWL[Aib]AGGPSSGAPPPS-NH2 (N-terminus assumed; SMILES CCCCCCCCCCCCCCCC(=O)N[C@@H](CCC(=O)N[C@@H](CCC(=O)NCCCC[C@H](NC(=O)[C@H](CCC(N)=O)NC(=O)[C@H](CCCCN)NC(=O)[C@H](CO)NC(=O)[C@H](CC(C)C)NC(=O)[C@H](CC(=O)O)NC(=O)[C@H](CO)NC(=O)[C@@H](NC(=O)[C@H](Cc1ccccc1)NC(=O)[C@@H](NC(=O)CNC(=O)[C@H](CCC(N)=O)NC(=O)C(C)(C)NC(=O)[C@@H](N)Cc1c[nH]cn1)[C@@H](C)O)[C@@H](C)O)C(=O)N[C@@H](CC(=O)O)C(=O)N[C@@H](CCC(=O)O)C(=O)N[C@@H](CCC(N)=O)C(=O)N[C@@H](CCCNC(=N)N)C(=O)N[C@@H](C)C(=O)N[C@@H](CCCCN)C(=O)N[C@@H](CC(C)C)C(=O)N[C@@H](Cc1ccccc1)C(=O)N[C@H](C(=O)N[C@@H](CCC(=O)O)C(=O)N[C@@H](Cc1c[nH]c2ccccc12)C(=O)N[C@@H](CC(C)C)C(=O)NC(C)(C)C(=O)N[C@@H](C)C(=O)NCC(=O)NCC(=O)N1CCC[C@H]1C(=O)N[C@@H](CO)C(=O)N[C@@H](CO)C(=O)NCC(=O)N[C@@H](C)C(=O)N1CCC[C@H]1C(=O)N1CCC[C@H]1C(=O)N1CCC[C@H]1C(=O)N[C@@H](CO)C(N)=O)[C@@H](C)CC)C(=O)O)C(=O)O) [exendin-4 derivative SEQ ID NO: 8],EC50 hGIP-R (cAMP formation),human GIP receptor,2140 pM
same,EC50 hGLP-1R (cAMP formation),human GLP-1 receptor,2.3 pM
same,EC50 hGlucagon-R (cAMP formation),human glucagon receptor,28.1 pM
H[Aib]QGTFTSDLSKQK([γGlu-Stearoyl])DEQRAKLFIEWL[Aib]AGGPSSGAPPPS-NH2 (N-terminus assumed; SMILES CCCCCCCCCCCCCCCCCC(=O)N[C@@H](CCC(=O)NCCCC[C@H](NC(=O)[C@H](CCC(N)=O)NC(=O)[C@H](CCCCN)NC(=O)[C@H](CO)NC(=O)[C@H](CC(C)C)NC(=O)[C@H](CC(=O)O)NC(=O)[C@H](CO)NC(=O)[C@@H](NC(=O)[C@H](Cc1ccccc1)NC(=O)[C@@H](NC(=O)CNC(=O)[C@H](CCC(N)=O)NC(=O)C(C)(C)NC(=O)[C@@H](N)Cc1c[nH]cn1)[C@@H](C)O)[C@@H](C)O)C(=O)N[C@@H](CC(=O)O)C(=O)N[C@@H](CCC(=O)O)C(=O)N[C@@H](CCC(N)=O)C(=O)N[C@@H](CCCNC(=N)N)C(=O)N[C@@H](C)C(=O)N[C@@H](CCCCN)C(=O)N[C@@H](CC(C)C)C(=O)N[C@@H](Cc1ccccc1)C(=O)N[C@H](C(=O)N[C@@H](CCC(=O)O)C(=O)N[C@@H](Cc1c[nH]c2ccccc12)C(=O)N[C@@H](CC(C)C)C(=O)NC(C)(C)C(=O)N[C@@H](C)C(=O)NCC(=O)NCC(=O)N1CCC[C@H]1C(=O)N[C@@H](CO)C(=O)N[C@@H](CO)C(=O)NCC(=O)N[C@@H](C)C(=O)N1CCC[C@H]1C(=O)N1CCC[C@H]1C(=O)N1CCC[C@H]1C(=O)N[C@@H](CO)C(N)=O)[C@@H](C)CC)C(=O)O) [exendin-4 derivative SEQ ID NO: 9],EC50 hGIP-R (cAMP formation),human GIP receptor,1160 pM
same,EC50 hGLP-1R (cAMP formation),human GLP-1 receptor,6.4 pM
same,EC50 hGlucagon-R (cAMP formation),human glucagon receptor,15.4 pM
H[Aib]QGTFTSDLSKQK([γGlu-Palmitoyl])DEQRAKLFIEWL[Aib]AGGPSSGAPPPS-NH2 (N-terminus assumed; SMILES CCCCCCCCCCCCCCCC(=O)N[C@@H](CCC(=O)NCCCC[C@H](NC(=O)[C@H](CCC(N)=O)NC(=O)[C@H](CCCCN)NC(=O)[C@H](CO)NC(=O)[C@H](CC(C)C)NC(=O)[C@H](CC(=O)O)NC(=O)[C@H](CO)NC(=O)[C@@H](NC(=O)[C@H](Cc1ccccc1)NC(=O)[C@@H](NC(=O)CNC(=O)[C@H](CCC(N)=O)NC(=O)C(C)(C)NC(=O)[C@@H](N)Cc1c[nH]cn1)[C@@H](C)O)[C@@H](C)O)C(=O)N[C@@H](CC(=O)O)C(=O)N[C@@H](CCC(=O)O)C(=O)N[C@@H](CCC(N)=O)C(=O)N[C@@H](CCCNC(=N)N)C(=O)N[C@@H](C)C(=O)N[C@@H](CCCCN)C(=O)N[C@@H](CC(C)C)C(=O)N[C@@H](Cc1ccccc1)C(=O)N[C@H](C(=O)N[C@@H](CCC(=O)O)C(=O)N[C@@H](Cc1c[nH]c2ccccc12)C(=O)N[C@@H](CC(C)C)C(=O)NC(C)(C)C(=O)N[C@@H](C)C(=O)NCC(=O)NCC(=O)N1CCC[C@H]1C(=O)N[C@@H](CO)C(=O)N[C@@H](CO)C(=O)NCC(=O)N[C@@H](C)C(=O)N1CCC[C@H]1C(=O)N1CCC[C@H]1C(=O)N1CCC[C@H]1C(=O)N[C@@H](CO)C(N)=O)[C@@H](C)CC)C(=O)O) [exendin-4 derivative SEQ ID NO: 10],EC50 hGIP-R (cAMP formation),human GIP receptor,890 pM
same,EC50 hGLP-1R (cAMP formation),human GLP-1 receptor,3.5 pM
same,EC50 hGlucagon-R (cAMP formation),human glucagon receptor,52.4 pM
H[Aib]QGTFTSDLSKQK([γGlu-Palmitoyl])DEQRAKLFIEWL[Aib]A[dA]GPSSGAPPPS-NH2 (N-terminus assumed; SMILES CCCCCCCCCCCCCCCC(=O)N[C@@H](CCC(=O)NCCCC[C@H](NC(=O)[C@H](CCC(N)=O)NC(=O)[C@H](CCCCN)NC(=O)[C@H](CO)NC(=O)[C@H](CC(C)C)NC(=O)[C@H](CC(=O)O)NC(=O)[C@H](CO)NC(=O)[C@@H](NC(=O)[C@H](Cc1ccccc1)NC(=O)[C@@H](NC(=O)CNC(=O)[C@H](CCC(N)=O)NC(=O)C(C)(C)NC(=O)[C@@H](N)Cc1c[nH]cn1)[C@@H](C)O)[C@@H](C)O)C(=O)N[C@@H](CC(=O)O)C(=O)N[C@@H](CCC(=O)O)C(=O)N[C@@H](CCC(N)=O)C(=O)N[C@@H](CCCNC(=N)N)C(=O)N[C@@H](C)C(=O)N[C@@H](CCCCN)C(=O)N[C@@H](CC(C)C)C(=O)N[C@@H](Cc1ccccc1)C(=O)N[C@H](C(=O)N[C@@H](CCC(=O)O)C(=O)N[C@@H](Cc1c[nH]c2ccccc12)C(=O)N[C@@H](CC(C)C)C(=O)NC(C)(C)C(=O)N[C@@H](C)C(=O)N[C@H](C)C(=O)NCC(=O)N1CCC[C@H]1C(=O)N[C@@H](CO)C(=O)N[C@@H](CO)C(=O)NCC(=O)N[C@@H](C)C(=O)N1CCC[C@H]1C(=O)N1CCC[C@H]1C(=O)N1CCC[C@H]1C(=O)N[C@@H](CO)C(N)=O)[C@@H](C)CC)C(=O)O) [exendin-4 derivative SEQ ID NO: 11],EC50 hGIP-R (cAMP formation),human GIP receptor,13400 pM
same,EC50 hGLP-1R (cAMP formation),human GLP-1 receptor,10.3 pM
same,EC50 hGlucagon-R (cAMP formation),human glucagon receptor,261 pM
H[Aib]QGTFTSDLSKQK([γGlu-γGlu-Palmitoyl])DEQRAKLFIEWL[Aib]S[dA]GPSSGAPPPS-NH2 (N-terminus assumed; SMILES CCCCCCCCCCCCCCCC(=O)N[C@@H](CCC(=O)N[C@@H](CCC(=O)NCCCC[C@H](NC(=O)[C@H](CCC(N)=O)NC(=O)[C@H](CCCCN)NC(=O)[C@H](CO)NC(=O)[C@H](CC(C)C)NC(=O)[C@H](CC(=O)O)NC(=O)[C@H](CO)NC(=O)[C@@H](NC(=O)[C@H](Cc1ccccc1)NC(=O)[C@@H](NC(=O)CNC(=O)[C@H](CCC(N)=O)NC(=O)C(C)(C)NC(=O)[C@@H](N)Cc1c[nH]cn1)[C@@H](C)O)[C@@H](C)O)C(=O)N[C@@H](CC(=O)O)C(=O)N[C@@H](CCC(=O)O)C(=O)N[C@@H](CCC(N)=O)C(=O)N[C@@H](CCCNC(=N)N)C(=O)N[C@@H](C)C(=O)N[C@@H](CCCCN)C(=O)N[C@@H](CC(C)C)C(=O)N[C@@H](Cc1ccccc1)C(=O)N[C@H](C(=O)N[C@@H](CCC(=O)O)C(=O)N[C@@H](Cc1c[nH]c2ccccc12)C(=O)N[C@@H](CC(C)C)C(=O)NC(C)(C)C(=O)N[C@@H](CO)C(=O)N[C@H](C)C(=O)NCC(=O)N1CCC[C@H]1C(=O)N[C@@H](CO)C(=O)N[C@@H](CO)C(=O)NCC(=O)N[C@@H](C)C(=O)N1CCC[C@H]1C(=O)N1CCC[C@H]1C(=O)N1CCC[C@H]1C(=O)N[C@@H](CO)C(N)=O)[C@@H](C)CC)C(=O)O)C(=O)O) [exendin-4 derivative SEQ ID NO: 12],EC50 hGIP-R (cAMP formation),human GIP receptor,8290 pM
same,EC50 hGLP-1R (cAMP formation),human GLP-1 receptor,3.7 pM
same,EC50 hGlucagon-R (cAMP formation),human glucagon receptor,130 pM
H[Aib]QGTFTSDLSKQK([γGlu-γGlu-Palmitoyl])DEQRAKLFIEWL[Aib]SGGPSSGAPPPS-NH2 [exendin-4 derivative SEQ ID NO: 13],EC50 hGIP-R (cAMP formation),human GIP receptor,2390 pM
same,EC50 hGlucagon-R (cAMP formation),human glucagon receptor,22.8 pM
H[Aib]QGTFTSDLSKQK([γGlu-γGlu-Palmitoyl])DEQRAKLFIEWL[Aib]K[dA]GPSSGAPPPS-NH2 (N-terminus assumed; SMILES CCCCCCCCCCCCCCCC(=O)N[C@@H](CCC(=O)N[C@@H](CCC(=O)NCCCC[C@H](NC(=O)[C@H](CCC(N)=O)NC(=O)[C@H](CCCCN)NC(=O)[C@H](CO)NC(=O)[C@H](CC(C)C)NC(=O)[C@H](CC(=O)O)NC(=O)[C@H](CO)NC(=O)[C@@H](NC(=O)[C@H](Cc1ccccc1)NC(=O)[C@@H](NC(=O)CNC(=O)[C@H](CCC(N)=O)NC(=O)C(C)(C)NC(=O)[C@@H](N)Cc1c[nH]cn1)[C@@H](C)O)[C@@H](C)O)C(=O)N[C@@H](CC(=O)O)C(=O)N[C@@H](CCC(=O)O)C(=O)N[C@@H](CCC(N)=O)C(=O)N[C@@H](CCCNC(=N)N)C(=O)N[C@@H](C)C(=O)N[C@@H](CCCCN)C(=O)N[C@@H](CC(C)C)C(=O)N[C@@H](Cc1ccccc1)C(=O)N[C@H](C(=O)N[C@@H](CCC(=O)O)C(=O)N[C@@H](Cc1c[nH]c2ccccc12)C(=O)N[C@@H](CC(C)C)C(=O)NC(C)(C)C(=O)N[C@@H](CCCCN)C(=O)N[C@H](C)C(=O)NCC(=O)N1CCC[C@H]1C(=O)N[C@@H](CO)C(=O)N[C@@H](CO)C(=O)NCC(=O)N[C@@H](C)C(=O)N1CCC[C@H]1C(=O)N1CCC[C@H]1C(=O)N1CCC[C@H]1C(=O)N[C@@H](CO)C(N)=O)[C@@H](C)CC)C(=O)O)C(=O)O) [exendin-4 derivative SEQ ID NO: 14],EC50 hGIP-R (cAMP formation),human GIP receptor,6530 pM
same,EC50 hGLP-1R (cAMP formation),human GLP-1 receptor,4.1 pM
same,EC50 hGlucagon-R (cAMP formation),human glucagon receptor,194 pM
H[Aib]QGTFTSDLSKQK([γGlu-γGlu-Palmitoyl])DEQRAKLFIEWL[Aib]KGGPSSGAPPPS-NH2 [exendin-4 derivative SEQ ID NO: 15],EC50 hGIP-R (cAMP formation),human GIP receptor,1860 pM
same,EC50 hGlucagon-R (cAMP formation),human glucagon receptor,42.6 pM
